Measured values from PMC3112237 (Journal of virology, 2011).

Target: the molecule itself
Assay: SDS-PAGE of unboiled samples, Coomassie stain

Row | Protein | stoichiometry N
1 | Ad3-K/S/Kn (His tag, K-coil dimerization domain, flexible linker, one shaft motif, Ad3 fiber knob) (designed binder, biotinylated (sites not given) only where it was immobilised on streptavidin (Fig. 5A)) KVSALKEKVSALKEKVSALKEKVSALKEKVSALKEGSGGGSGGGSGGGSNSIALKNNTLWTGPKPEANCIIEYGKQNPDSKLTLILVKNGGIVNGYVTLMGASDYVNTLFKNKNVSINVELYFDATGHILPDSSSLKTDLELKYKQTADFSARGFMPSTTAYPFVLPNAGTHNENYIFGQCYYKASDGALFPLEVTVMLNKRLPDSRTSYVMTFLWSLNAGLAPETTQATLITSPFTFSYIREDD | 3
2 | Ad3-E/S/Kn (His tag, E-coil dimerization domain, flexible linker, one shaft motif, Ad3 fiber knob) (designed binder) EVSALEKEVSALEKEVSALEKEVSALEKEVSALEKGSGGGSGGGSGGGSNSIALKNNTLWTGPKPEANCIIEYGKQNPDSKLTLILVKNGGIVNGYVTLMGASDYVNTLFKNKNVSINVELYFDATGHILPDSSSLKTDLELKYKQTADFSARGFMPSTTAYPFVLPNAGTHNENYIFGQCYYKASDGALFPLEVTVMLNKRLPDSRTSYVMTFLWSLNAGLAPETTQATLITSPFTFSYIREDD | 3

Target: the molecule itself
Assay: SDS-PAGE of unboiled samples with Western blot

Row | Protein | stoichiometry N
3 | recombinant Ad3 fiber knob S5/Kn (five shaft motifs and the knob domain) (domain or fragment) GSLQLKVGSGLTVDTTDGSLEENIKVNTPLTKSNHSINLPIGNGLQIEQNKLCSKLGNGLTFDSSNSIALKNNTLWTGPKPEANCIIEYGKQNPDSKLTLILVKNGGIVNGYVTLMGASDYVNTLFKNKNVSINVELYFDATGHILPDSSSLKTDLELKYKQTADFSARGFMPSTTAYPFVLPNAGTHNENYIFGQCYYKASDGALFPLEVTVMLNKRLPDSRTSYVMTFLWSLNAGLAPETTQATLITSPFTFSYIREDD | 3
4 | recombinant Ad3 fiber knob S6/Kn (six shaft motifs and the knob domain) (domain or fragment) GVLSLKCVNPLTTASGSLQLKVGSGLTVDTTDGSLEENIKVNTPLTKSNHSINLPIGNGLQIEQNKLCSKLGNGLTFDSSNSIALKNNTLWTGPKPEANCIIEYGKQNPDSKLTLILVKNGGIVNGYVTLMGASDYVNTLFKNKNVSINVELYFDATGHILPDSSSLKTDLELKYKQTADFSARGFMPSTTAYPFVLPNAGTHNENYIFGQCYYKASDGALFPLEVTVMLNKRLPDSRTSYVMTFLWSLNAGLAPETTQATLITSPFTFSYIREDD | 3
5 | recombinant Ad3 fiber knob S3/Kn (three shaft motifs and the knob domain) (domain or fragment) HSINLPIGNGLQIEQNKLCSKLGNGLTFDSSNSIALKNNTLWTGPKPEANCIIEYGKQNPDSKLTLILVKNGGIVNGYVTLMGASDYVNTLFKNKNVSINVELYFDATGHILPDSSSLKTDLELKYKQTADFSARGFMPSTTAYPFVLPNAGTHNENYIFGQCYYKASDGALFPLEVTVMLNKRLPDSRTSYVMTFLWSLNAGLAPETTQATLITSPFTFSYIREDD | 3
6 | recombinant Ad3 fiber knob S/Kn (one shaft motif and the knob domain) (domain or fragment) NSIALKNNTLWTGPKPEANCIIEYGKQNPDSKLTLILVKNGGIVNGYVTLMGASDYVNTLFKNKNVSINVELYFDATGHILPDSSSLKTDLELKYKQTADFSARGFMPSTTAYPFVLPNAGTHNENYIFGQCYYKASDGALFPLEVTVMLNKRLPDSRTSYVMTFLWSLNAGLAPETTQATLITSPFTFSYIREDD | 3
7 | recombinant Ad3 fiber knob S4/Kn (four shaft motifs and the knob domain) (domain or fragment) LEENIKVNTPLTKSNHSINLPIGNGLQIEQNKLCSKLGNGLTFDSSNSIALKNNTLWTGPKPEANCIIEYGKQNPDSKLTLILVKNGGIVNGYVTLMGASDYVNTLFKNKNVSINVELYFDATGHILPDSSSLKTDLELKYKQTADFSARGFMPSTTAYPFVLPNAGTHNENYIFGQCYYKASDGALFPLEVTVMLNKRLPDSRTSYVMTFLWSLNAGLAPETTQATLITSPFTFSYIREDD | 3
8 | recombinant Ad3 fiber knob S2/Kn (two shaft motifs and the knob domain) (domain or fragment) NKLCSKLGNGLTFDSSNSIALKNNTLWTGPKPEANCIIEYGKQNPDSKLTLILVKNGGIVNGYVTLMGASDYVNTLFKNKNVSINVELYFDATGHILPDSSSLKTDLELKYKQTADFSARGFMPSTTAYPFVLPNAGTHNENYIFGQCYYKASDGALFPLEVTVMLNKRLPDSRTSYVMTFLWSLNAGLAPETTQATLITSPFTFSYIREDD | 3
